B1: Lamina-associated polypeptide 2, isoform alpha (Homo sapiens), P42166 (parent)
chain: MPEFLEDPSVLTKDKLKSELVANNVTLPAGEQRKDVYVQLYLQHLTARNRPPLPAGTNSKGPPDFSSDEEREPTPVLGSGAAAAGRSRAAVGRKATKKTDKPRQEDKDDLDVTELTNEDLLDQLVKYGVNPGPIVGTTRKLYEKKLLKLREQGTESRSSTPLPTISSSAENTRQNGSNDSDRYSDNEEGKKKEHKKVKSTRDIVPFSELGTTPSGGGFFQGISFPEISTRPPLGSTELQAAKKVHTSKGDLPREPLVATNLPGRGQLQKLASERNLFISCKSSHDRCLEKSSSSSSQPEHSAMLVSTAASPSLIKETTTGYYKDIVENICGREKSGIQPLCPERSHISDQSPLSSKRKALEESESSQLISPPLAQAIRDYVNSLLVQGGVGSLPGTSNSMPPLDVENIQKRIDQSKFQETEFLSPPRKVPRLSEKSVEERDSGSFVAFQNIPGSELMSSFAKTVVSHSLTTLGLEVAKQSQHDKIDASELSFPFHESILKVIEEEWQQVDRQLPSLACKYPVSSREATQILSVPKVDDEILGFISEATPLGGIQAASTESCNQQLDLALCRAYEAAASALQIATHTAFVAKAMQADISQAAQILSSDPSRTHQALGILSKTYDAASYICEAAFDEVKMAAHTMGNATVGRRYLWLKDCKINLASKNKLASTPFKGGTLFGGEVCKVIKKRGNKH

Variants of: B1
Conditions: with lmna_human LMNA

Variant	effect of a mutation on the interaction
R690C	decreasing interaction
